Tests used:
[1] = test system: primary human foreskin fibroblasts; assay: Cyr61-regulated gene expression (multi-gene blot, Northern); format: cell-based
Description: Purified, soluble, recombinant Cyr61 protein was added to cultures of primary human foreskin fibroblasts for 24 hours. From these cells, mRNA was isolated for preparation of probes to hybridize to a multi-gene blot (Clontech Atlas Human Array 1.2 cat no. 7850-1) containing about 650 genes. The levels of expression of these genes in Cyr61-treated cells were compared to that of control cells. […] These findings have been confirmed by Northern blot analysis showing increases or decreases of the mRNAs in question in Cyr61-treated cells. A time course of expression changes has been established. In particular, by 6 hours after its addition, Cyr61 has induced expression of VEGF-A mRNA and the induction is still evident at 12 and 24 hours post-addition. Also at 12 and 24 hours post-addition, Cyr61 has induced expression of VEGF-A polypeptide. With respect to VEGF-C, induction of mRNA is clearly evident 12 hours after addition of Cyr61 and the induction persists at least through 24 hours post-addition. Cyr61 is expected to induce the expression of VEGF-C polypeptide with similar kinetics.

[2] = test system: 1064SK primary human foreskin fibroblasts; assay: Fibroblast adhesion assay (methylene blue, A620); format: cell-based; details: for support of 1064SK fibroblast adhesion: protein coated on wells; for inhibition by anti-α6 antibody of binding mediated by the coated protein: anti-α6 20 μg/ml
Description: The ability of Cyr61 to mediate cell adhesion in normal fibroblasts was investigated. Microtiter wells were coated with purified recombinant Cyr61 protein, and 1064SK primary human foreskin fibroblasts were allowed to adhere under serum-free conditions. […] 50 μl cell suspensions were plated on microtiter wells coated with varying concentrations (0.5-5.0 μg/ml) of Cyr61 protein. After incubation at 37° C. for 30 minutes, adherent cells were fixed and stained with methylene blue.
In another experiment, microtiter wells were coated with either BSA, Cyr61 (2 μg/ml), or vitronectin (VN; 0.5 μg/ml) and blocked with affinity-purified anti-Cyr61 antibodies for one hour at 37° C. before 1064SK cells were plated.
The effects of divalent cations in cell adhesion to Cyr61 was also investigated. […] Data are means from triplicate determinations. […] Inhibition by Ca^2+ is characteristic of adhesion through some members of the β1 family of integrins, including receptors that bind type I collagen, laminin, and vitronectin (integrins α2β1, α6β1, and αVβ1) in fibroblasts, as well as the lymphocyte-specific integrin αLβ2.
The effects of RGD peptides on Cyr61-mediated fibroblast binding was tested by plating cells in wells coated with Cyr61 (2 μg/ml). Type I collagen (2 μg/ml) or vitronectin (0.5 μg/ml), 2 mM GRGDSP or GRGESP peptide was then added.
Cells were also pre-incubated with 40 μg/ml monoclonal antibodies against the integrin α5 or the integrin αV subunits at room temperature for 30 minutes, then plated on wells coated with Cyr61 (2 μg/ml), vitronectin (0.5 μg/ml) or fibronectin (FN, 1 μg/ml). […] The data are means, representative of three experiments.
The 1064 SK cells were also analyzed using the monoclonal antibody JBIA, which binds the β1 integrin subunit. Cells were pre-incubated with the antibody (50 μg/ml) before plating on microtiter wells coated with Cyr61 (2 μg/ml), Type I collagen (2 μg/ml), or vitronectin (0.5 μg/ml). […] Data are means, representative of three experiments.
To identify the specific β1 integrin that mediates fibroblast adhesion to Cyr61, the inhibitory effects of function-blocking monoclonal antibodies were tested against various integrin α subunits. […] The data are means, representative of at least three experiments.

[3] = test system: 1064SK human skin fibroblasts; assay: Human skin fibroblast migration; format: cell-based; details: 1064SK cells
[4] = test system: NIH 3T3 fibroblasts; assay: Thymidine incorporation (mitogen potentiation), NIH 3T3; format: cell-based, mouse; details: bFGF 15 ng/ml or PDGF-BB 30 ng/ml
Description: More specifically, NIH 3T3 fibroblast cells were plated on 24-well plates at 3×10^4 cells/well and grown in DMEM with 10% fetal bovine serum (Intergen Co., Purchase, N.Y.) for 3-4 days and incubated with medium containing 0.2% FBS for the following 48 hours. The following compounds, at the parenthetically noted final concentrations, were then added to the plated cells in fresh DMEM containing 0.2% fbs and [^3H]-thymidine (1 μCi/ml final concentration; ICN Biomedicals, Inc., Costa Mesa, Calif.): bFGF (15 ng/ml), PDGF-BB (30 ng/ml), and murine Cyr61 (0.5-5 μg/ml). These compounds were added to individual plates according to the following pattern: 1) no supplementation; 2) murine Cyr61; 3) bFGF; 4) murine Cyr61 and bFGF; 5) PDGF-BB; and 6) murine Cyr61 and PDGF. After 18-20 hours of incubation, cells were washed with PBS and fixed with 10% trichloroacetic acid. DNA was dissolved in 0.1 N NaOH and thymidine incorporation was determined. […] Without any supplements, 3T3 cells incorporated approximately 1.8×10^4 cpm of [^3H]-thymidine, in the presence or absence of Cyr61. Cells exposed to bFGF alone incorporated about 1.2×10^5 cpm; cells contacting bFGF and murine Cyr61 incorporated 2×10^5 cpm. Cells receiving PDGF-BB incorporated about 1.2×10^5 cpm; and cells exposed to PDGF-BB and murine Cyr61 incorporated approximately 2.4×10^5 cpm.
DNA synthesis for HUVE cells and NIH 3T3 fibroblasts was measured by thymidine incorporation as described previously (Kireeva et al., [1996]) with minor modifications. HUVE cells were grown in 24-well plates to a subconfluent state, serum-starved for 24 hours and treated with F12K medium containing 10% fetal bovine serum (FBS), 1 μCi/ml [^3H]-thymidine and 10 ng/ml basic Fibroblast Growth Factor (bFGF) (Gibco-BRL, Inc.) with various concentrations of Cyr61 and Fisp12 as indicated. NIH 3T3 fibroblasts were grown to subconlfluence, serum-starved for 48 hours, and treated with Minimal Essential Medium (MEM) containing 0.5% FBS, 1 μCi/ml [^3H]-thymidine, bFGF and various concentrations of Cyr61 or Fisp12. Thymidine incorporation into the trichloroacetic acid-insoluble fraction was determined after 24 hour incubation. Logarithmically grown mink lung epithelial cells (Mv1lu, CCL64) were treated with various concentrations of TGF-β1 (Gibco-BRL) and 2 μg/ml of Cyr61 or Fisp12 for 18 hours; [^3H]-thymidine was then added to 1 μCi/ml for 2 hours. Thymidine incorporation was determnined as described above.

[5] = Heparin binding assay (salt elution from heparin-Sepharose/agarose)

B1: Cyr61 NT: Human Cyr61 fragment with domains I, II and III, lacking heparan binding domain IV (protein)
chain: TCPAACHCPLEAPKCAPGVGLVRDGCGCCKVCAKQLNEDCSKTQPCDHTKGLECNFGASSTALKGICRAQSEGRPCEYNSRIYQNGESFQPNCQHQCTCIDGAVGCIPLCPQELSLPNLGCPNPRLVKVTGQCCEEWVCDEDSIKDPMEDQDGLLGKELGFDASEVELTRNNELIAVGKGRSLKRLPVFGMEPRILYNPLQGQKCIVQTTSWSQCSKTCGTGISTRVTNDNPECRLVKETRICEVRPCGQPVYSSLK
induction of VEGF, MMP1, MMP3 etc. [1]: do not induce the expression of the above-referenced genes | support of 1064SK fibroblast adhesion [2]: did not support fibroblast adhesion | migration of human fibroblasts [3]: did support fibroblast migration | migration of human fibroblasts ([3]; listed as human Cyr61 NT): induced 1064SK cell migration

B2: PDGF-BB: Platelet-Derived Growth Factor, BB isoform (protein, UniProt P01127 82-190, looked up)
Platelet-derived growth …: SLGSLTIAEPAMIAECKTRTEVFEISRRLIDRTNANFLVWPPCVEVQRCSGCCNNRNVQCRPTQVQLRPVQVRKIEIVRKKPIFKKATVTLEDHLACKCETVAAARPVT
modifications: BB homodimer
notes: Platelet-Derived Growth Factor, BB isoform
[3H]-thymidine incorporation, growth factor alone [4]: about 1.2×10^5 cpm

B3: decorin: Decorin from Sigma (protein, UniProt P21793 31-360, looked up)
Decorin: DEASGIGPEEHFPEVPEIEPMGPVCPFRCQCHLRVVQCSDLGLEKVPKDLPPDTALLDLQNNKITEIKDGDFKNLKNLHTLILINNKISKISPGAFAPLVKLERLYLSKNQLKELPEKMPKTLQELRVHENEITKVRKSVFNGLNQMIVVELGTNPLKSSGIENGAFQGMKKLSYIRIADTNITTIPQGLPPSLTELHLDGNKITKVDAASLKGLNNLAKLGLSFNSISAVDNGSLANTPHLRELHLNNNKLVKVPGGLADHKYIQVVYLHNNNISAIGSNDFCPPGYNTKKASYSGVSLFSNPVQYWEIQPSTFRCVYVRAAVQLGNYK
concentration that inhibited cell adhesion to Cyr61 ([2]; in cell suspension): 10 µg/mL

B4: heparatinase: Enzyme used to pretreat cells (heparinase I, 2 U/ml) (protein, UniProt Q05819 22-384, looked up)
Heparin lyase I: QQKKSGNIPYRVNVQADSAKQKAIIDNKWVAVGINKPYALQYDDKLRFNGKPSYRFELKAEDNSLEGYAAGETKGRTELSYSYATTNDFKKFPPSVYQNAQKLKTVYHYGKGICEQGSSRSYTFSVYIPSSFPDNATTIFAQWHGAPSRTLVATPEGEIKTLSIEEFLALYDRMIFKKNIAHDKVEKKDKDGKITYVAGKPNGWKVEQGGYPTLAFGFSKGYFYIKANSDRQWLTDKADRNNANPENSEVMKPYSSEYKTSTIAYKMPFAQFPKDCWITFDVAIDWTKYGKEANTILKPGKLDVMMTYTKNKKPQKAHIVNQQEILIGRNDDDGYYFKFGIYRVGNSTVPVTYNLSGYSETAR
1064SK adhesion to Cyr61-coated wells with agent ([2]; Cyr61 2 μg/ml, agent at the level stated in the block, Mg2+ 5.0 mM after EDTA): 0.13 A620 | 1064SK adhesion to fibronectin-coated wells with agent ([2]; fibronectin 1 μg/ml): 0.66 A620 | 1064SK adhesion to vitronectin-coated wells with agent ([2]; vitronectin 0.5 μg/ml): 0.63 A620

B5: H1: Cyr61 variant, lysine/arginine of heparin-binding motif at residues 280-290 replaced with alanine (protein)
chain: TCPAACHCPLEAPKCAPGVGLVRDGCGCCKVCAKQLNEDCSKTQPCDHTKGLECNFGASSTALKGICRAQSEGRPCEYNSRIYQNGESFQPNCKHQCTCIDGAVGCIPLCPQELSLPNLGCPNPRLVKVSGQCCEEWVCDEDSIKDSLDDQDDLLGLDASEVELTRNNELIAIGKGSSLKRLPVFGTEPRVLFNPLHAHGQKCIVQTTSWSQCSKSCGTGISTRVTNDNPECRLVKETRICEVRPCGQPVYSSLKKAGAACSATAKPEPVRFTYAGCSSVKKYRPKYCGSCVDGRCCTPLQTRTVKMRFRCEDGEMFSKNVMMIQSCKCNYNCPHPNEASFRLYSLFNDIHKFRD
heparin binding [5]: somewhat decreased heparin-binding affinities | inhibition by anti-α6 antibody of binding mediated by the coated protein [2]: 69% | support of 1064SK fibroblast adhesion [2]: able to support fibroblast adhesion

B6: H2: Cyr61 variant, heparin-binding motif at residues 305-310 replaced with alanine (protein)
chain: TCPAACHCPLEAPKCAPGVGLVRDGCGCCKVCAKQLNEDCSKTQPCDHTKGLECNFGASSTALKGICRAQSEGRPCEYNSRIYQNGESFQPNCKHQCTCIDGAVGCIPLCPQELSLPNLGCPNPRLVKVSGQCCEEWVCDEDSIKDSLDDQDDLLGLDASEVELTRNNELIAIGKGSSLKRLPVFGTEPRVLFNPLHAHGQKCIVQTTSWSQCSKSCGTGISTRVTNDNPECRLVKETRICEVRPCGQPVYSSLKKGKKCSKTKKSPEPVRFTYAGCSSVVAAYAPYCGSCVDGRCCTPLQTRTVKMRFRCEDGEMFSKNVMMIQSCKCNYNCPHPNEASFRLYSLFNDIHKFRD
heparin binding [5]: somewhat decreased heparin-binding affinities | inhibition by anti-α6 antibody of binding mediated by the coated protein [2]: 70% | support of 1064SK fibroblast adhesion [2]: able to support fibroblast adhesion

— patent US7521540B2, “CYR61 compositions and methods” (Munin Corporation, priority 1996, dated 2009)
